In paper PMC3984155:

Legend:
[1] = biological target: Litopenaeus vannamei Proliferating Cell Nuclear Antigen (Litopenaeus vannamei); assay: SEC; purified LvPCNA at 1 mg/ml on a Superdex 200 column, elution compared with known molecular-mass standards
[2] = biological target: Litopenaeus vannamei Proliferating Cell Nuclear Antigen (Litopenaeus vannamei); assay: crystal structure; X-ray, 3 Å, space group C2; crystals from 300 mM CaCl2, 100 mM sodium HEPES pH 7.5, 30% v/v PEG 400; molecular replacement

In the case of “Litopenaeus vannamei Proliferating Cell Nuclear Antigen (natural protein)”, the stoichiometry N [1] is reported as 3 and the stoichiometry N [2] is reported as 3.
